Measurements as given in IntAct's records for PubMed 26972053.

B1: Cytosolic arginine sensor for mTORC1 subunit 1 (Homo sapiens), Q8WTX7 (parent)
chain: MELHILEHRVRVLSVARPGLWLYTHPLIKLLFLPRRSRCKFFSLTETPEDYTLMVDEEGFKELPPSEFLQVAEATWLVLNVSSHSGAAVQAAGVTKIARSVIAPLAEHHVSVLMLSTYQTDFILVREQDLSVVIHTLAQEFDIYREVGGEPVPVTRDDSSNGFPRTQHGPSPTVHPIQSPQNRFCVLTLDPETLPAIATTLIDVLFYSHSTPKEAASSSPEPSSITFFAFSLIEGYISIVMDAETQKKFPSDLLLTSSSGELWRMVRIGGQPLGFDECGIVAQIAGPLAAADISAYYISTFNFDHALVPEDGIGSVIEVLQRRQEGLAS
partner: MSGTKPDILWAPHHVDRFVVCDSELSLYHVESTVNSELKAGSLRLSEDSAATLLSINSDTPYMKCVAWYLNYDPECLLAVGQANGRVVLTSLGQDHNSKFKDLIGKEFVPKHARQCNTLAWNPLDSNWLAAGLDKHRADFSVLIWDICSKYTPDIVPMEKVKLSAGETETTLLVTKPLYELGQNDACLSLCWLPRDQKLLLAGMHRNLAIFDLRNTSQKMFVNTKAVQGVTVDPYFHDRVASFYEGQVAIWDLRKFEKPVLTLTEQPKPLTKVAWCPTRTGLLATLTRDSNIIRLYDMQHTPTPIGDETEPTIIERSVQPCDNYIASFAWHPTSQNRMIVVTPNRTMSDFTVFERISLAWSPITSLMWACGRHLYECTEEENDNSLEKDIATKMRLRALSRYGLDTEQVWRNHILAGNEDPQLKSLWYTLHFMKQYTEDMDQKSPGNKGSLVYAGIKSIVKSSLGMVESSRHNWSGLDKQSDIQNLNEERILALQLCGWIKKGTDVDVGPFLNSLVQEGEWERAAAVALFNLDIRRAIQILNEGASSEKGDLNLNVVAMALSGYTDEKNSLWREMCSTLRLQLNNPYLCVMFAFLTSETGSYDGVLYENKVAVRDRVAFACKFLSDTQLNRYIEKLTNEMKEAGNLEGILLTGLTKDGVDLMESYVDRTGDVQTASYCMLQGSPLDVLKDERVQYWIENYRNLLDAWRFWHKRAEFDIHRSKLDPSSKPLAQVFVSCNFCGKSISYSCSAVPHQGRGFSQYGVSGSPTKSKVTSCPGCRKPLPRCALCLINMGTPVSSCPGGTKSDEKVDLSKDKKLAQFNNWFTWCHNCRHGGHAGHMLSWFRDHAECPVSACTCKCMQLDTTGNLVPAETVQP

Variants of: B1
Conditions: with mios_human MIOS

| Variant | effect of a mutation on the interaction |
| --- | --- |
| I280A | disrupting interaction strength |
